In patent US10052364B2, “Osteocalcin as a treatment for cognitive disorders” (THE TRUSTEES OF COLUMBIA UNIVERSITY IN THE CITY OF NEW YORK, priority 2013, dated 2018):

How the values were obtained:
WT mice = assay: Contextual Fear Conditioning after acute hippocampal injection; format: in vivo, mouse; settings: for freezing behavior compared to controls, 24 hours after the initial shocks: 10 ng injected acutely in both hemispheres, n=4 per group
Method: FIG. 11. CREB activation by osteocalcin is functionally relevant. Contextual fear conditioning in 3.5 month old mice injected acutely with 10 ng recombinant uncarboxylated osteocalcin 24 hours prior to context exposure. 3 shocks of 0.55 mA were delivered to mice 1 min apart.
To determine whether these acute injections and corresponding activation of the CREB pathway are functionally relevant, Contextual Fear Conditioning (CFC), a hippocampus dependent task that assesses long term memory, was performed. Mice were injected acutely in both hemispheres with either PBS or 10 ng recombinant uncarboxylated osteocalcin.

[1] = Ex vivo dual perfusion of the mouse placenta (maternal-fetal transport); format: in vitro ADME; settings: 300 ng/ml through the uterine artery
Method: FIG. 6. Maternal osteocalcin favors fetal neurogenesis. (A) Expression of osteocalcin (qPCR) in bone, brain, and placenta of WT and Ocn^−/− newborns (postnatal day [P] 0) and embryos (E13.5-E18.5). (B) Osteocalcin circulating levels in WT or Ocn^−/− newborns (P0) and embryos (E13.5-E18.5). (C) Ex vivo dual-perfusion system that monitors the transport of osteocalcin across the placenta. Uncarboxylated mouse osteocalcin (300 ng/ml) was injected through the uterine artery in placentas obtained from WT mice at E14.5, E15.5, and E18.5 of pregnancy. Osteocalcin in fetal eluates is represented as % of maternal input. (D) Circulating levels of osteocalcin in WT embryos originating from WT or Ocn^+/− mothers, of Ocn^+/− embryos originating from Ocn^+/− Ocn^−/− mothers, and of Ocn^−/− embryos originating from Ocn^+/− or Ocn^−/− mothers. Measurements were performed at E16.5 and E18.5. […]
Maternal-fetal transport of osteocalcin was monitored using ex vivo dual perfusion of the mouse placenta (Goeden & Bonnin, 2013, Nature Protocols 8:66-74). […] Osteocalcin transport through the placenta was analyzed by measuring the concentration of osteocalcin present in fetal eluates obtained through the umbilical vein, each time point (1-9) corresponding to a 10 minute collection period (at 5 μl/min). […]

B1: uncarboxylated osteocalcin: Recombinant osteocalcin bacterially produced, cleaved from the GST subunit; completely undercarboxylated at all three sites (protein, listed as Homo sapiens)
chain: MRALTLLALLALAALCIAGQAGAKPSGAESSKGAAFVSKQEGSEVVKRPRRYLYQWLGAPVPYPDPLEPRREVCELNPDCDELADHIGFQEAYRRFYGPV
modifications: uncarboxylated
notes: Recombinant osteocalcin bacterially produced, cleaved from the GST subunit; completely undercarboxylated at all three sites
% freezing on Day 1 (WT mice; 10 ng injected 24 hours prior to context exposure, 3.5 month old mice): the same for both groups
freezing behavior compared to controls, 24 hours after the initial shocks (WT mice): increased freezing behavior
freezing behavior compared to controls, 24 hours after the initial shocks (WT mice; listed as recombinant uncarboxylated osteocalcin): increased freezing along with hyperexcitability
transport across the placenta, onset ([1]; WT placentas): begins to cross the placenta at day 14.5 of gestation
transplacental transfer to the fetal circulation at day 15.5 or 18.5 of gestation ([1]; compared with day 14.5): larger transplacental transfer
